US20160237154A1 (SORRENTO THERAPEUTICS, published 2016)

T1: Recombinant human CTLA4/His (human, UniProt P16410 36-162, limits assumed)
T1 construct: not shown: His tag
T1 sequence (looked up): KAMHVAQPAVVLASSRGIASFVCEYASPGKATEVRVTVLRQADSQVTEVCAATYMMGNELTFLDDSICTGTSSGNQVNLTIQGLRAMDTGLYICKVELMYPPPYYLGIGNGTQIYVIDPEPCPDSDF

T2: human CTLA4 (human, UniProt P16410 36-161, limits assumed)
T2 sequence (looked up): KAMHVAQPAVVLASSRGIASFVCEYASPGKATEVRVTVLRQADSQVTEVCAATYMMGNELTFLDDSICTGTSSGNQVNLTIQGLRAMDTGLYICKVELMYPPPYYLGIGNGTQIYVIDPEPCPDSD


Target: T1, Recombinant human CTLA4/His
Test: SPR (Biacore), antibody captured on anti-human Fc, CTLA4/His as analyte, 1:1 model
Method: This example illustrates binding affinities of exemplary anti-CTLA4 antibodies disclosed herein. Affinities were determined using surface plasmon resonance (Biacore). Briefly, Anti-human Fc antibody (GE, BR-1008-39) was immobilized on CM5 sensor chip to approximately 1000 RU using standard NHS/EDC coupling methodology. Antibodies (about 10 μg/ml) were captured for 60 s at a flow rate 10 μl/min Recombinant human CTLA4/His was serially diluted in running buffer (HBS-EP). All measurements were conducted with a flow rate of 30 μL/min Surfaces were regenerated with 3M MgCl₂ for 60 s. A 1:1 (Langmuir) binding model was used to fit the data.

Kd [nM]	koff [s⁻¹]	kon [M⁻¹ s⁻¹]	Binder
0.738	0.000217	294000	F7 (antibody, V domains shown, captured by anti-human Fc antibody in SPR, so it has a human Fc; also called anti-CTLA4 antibody F7) VH: QVQLVQSGAEVKKPGASVKVSCKASGYAFDGHYMHWVRQAPGQRLEWMGWVDPHSGATNYAQNFQGGVTMTRDTSINTVYMELSSLKSDDTAVYYCARDFYDTSAKSGAFDIWGQGTMVTVSS VL: AIQLTQSPSSVSASVGDRVTITCRASQGISSWLAWYQQKPGKAPKLLIYAASSLQSGVPSRFSGSGSGTDFTLTISSLQPEDFATYYCQQVNSFPWAFGQGTKVEIK

Target: T2, human CTLA4
Test: SPR (BiaCore)

Kd [nM]	koff [s⁻¹]	kon [M⁻¹ s⁻¹]	Binder
58.9	0.00488	82900	E8 (antibody, V domains shown, also called antibody E8) VH: QVQLVQSGAEVKKPGASVKVSCEASGYTFTNYYIHWLRQAPGQGLEWMGIINPSGGSTTYAQKFQGRITMTRDTSTNTLYMELSSLRSEDTAIYYCARRDCRGPSCYFAYWGQGTTVTVSS VL: DIVMTQSPSSLSASVGDRVTITCRASQSISSYLNWYQQKPGKAPKLLIYAASSLQSGVPPRFSGSGSGTEFTLTISSLQPEDFATYYCQQANSFPPTFGQGTKVDIK

Target: T2, human CTLA4
Test: selection of human antibodies; method not described

Binder	binding result
A2 (antibody, V domains shown) VH: QMQLVQSGAEVKMPGSSVRISCKASGGSFTTHFINWVRQAPGQGLEWMGWMNPNTGNTGYAERFQGRVTLTRDTSISTAYLELSSLRSDDTAVYYCARNPAESGRFDPWGQGTLVTVSS VL: QSALTQPPSASGSPGRSVTISCTGTSNNVGGYNYVSWYQQHPGKAPKLMIYEVTKRPSGVPDRFSGSKSGNTASLTVSGLQAEDEADYYCGTWDGSLNAYVFGTGTKVTVL	binds
G2 (antibody, V domains shown) VH: QVQLVESGGGLIQPGGSLRLSCAASGFTVSSAYMSWVRQAPGKGLEWVSVIYRGGTTYYADSVKGRFTISRDNSKNTLYLQMNSLRAEDTAVYYCRGEGGNSGDYFDYWGQGTTVTVSS VL: NFMLTQPASVSGSPGQSITISCTGTSSDVGGYNFVSWYQQHPGKAPKLMIYDVSKRPSGVSNRFSGSKSGNTASLTISGLQAEDEADYYCSSYTSTNTLDVLFGGGTKLTVL	binds
F6 (antibody, V domains shown) VH: EVQLVESGGGFVKPGRSLRLSCTASGFTFGDYGMSWFRQAPGKGLEWVGFIRSKAYGGTTDYAASVKGRFTISRDDSKSFAYLQMNSLKTEDTAVYYCTRGHYSASIWGQGTLVTVSS VL: SYELMQPPSVSVAPGKTARITCGGNNIGSKSVHWYQQRPDQAPVLVIYSDNDRPSGIPERFSGSSSGHTATLTISRVEAGDEADYFCQVWDSNKNEWVFGGGTKLTVL	binds
G3 (antibody, V domains shown) VH: QVQLVQSGAEVKKPGASVKVSCKASGYTFTSYYMHWVRQAPGQGLEWMGIINPSGGSTSYAQKFQGRVTMTRDTSTSTVYMELSGLRSEDTAVYYCARYEHDYDSSKATTGYFDYWGQGTLVTVSS VL: AIQLTQSPDSLAVSLGERATINCKSSQSILYRSNNKNYLAWYQQKPGQPPKLLIYWASTRESGVPDRFSGSGSGTDFTLTISSLQPEDFATYYCQQADRFPITFGQGTRLEIK	binds
A7 (antibody, V domains shown) VH: QMQLVQSGAEVKKPGASVKVSCKASGGTFSSYAISWVRQAPGQGLEWMGGIIPIFGTANYAQKFQGRVTITADESTSTAYMELSSLRSEDTAVYYCAREIGSYSSGWYRAFDIWGQGTMVTVSS VL: DIVMTQSPSTLSASVGDRVTITCRASQSISSWLAWYQQKPGKAPQLLIYKASNLQSGVPSRFSGSGSVTEFSLTISSLLPEDFATYYCQQYSRPPWTFGQGTKVEIK	binds
A12 (antibody, V domains shown) VH: QVQLVESGGGLVQPGGSLRLSCAASGFTFSNYAMNWVRQTPGKGLEWVSVNYNDGFGTFNGYYADSVKGRFIISRDNSKNTLYLQMNSLRVDDTAVYYCARDSGVAGPYYFDNWGQGTLVTVSS VL: AIQLTQSPSTLSASVGDRVTITCRASQSISSWLAWYQQKPGKAPKLLIYKASSLESGVPSRFSGSGSGTEFTLTISSLQPDDFATYYCQQYNSSPLTFGGGTKLEIK	binds
G5 (antibody, V domains shown) VH: QVQLQQSGPGLVKPSQTLSLTCAISGDSVSSNSAAWNWIRQSPSRGLEWLGRTYYRSKWYNDYAVSVKSRITINPDTSKNQFSLQLNSVTPEDTAVYYCARDRWELPFDYWGQGTTVTVSS VL: QSVVTQPPSVSAASGQKVIISCSGSNSNIVNNYVSWYQQLPGAAPKVLIYANNKRPSGIPDRFSGSKSGTSAFLAITGLQTGDEADYYCGTWDGSLDVDVFGGGTKLTVL	binds

Further lines, results first:

binding result	Binder
binds	F3 (antibody, V domains shown) VH: QMQLVQSGAEVKKPGASVTVSCKASGYTFTNSYIHWVRQAPGQGLEWVGRLIPSSGYTIFSQKLQGRVSMTRDTSMSTHYLTLSHLRPEDTAVYYCATDGGNYNLDFWGQGTLVTVSS VL: QPVLTQPPSVSGSPGQSVTISCTGTSSDVGGYNYVSWYQQHPGKAPKLMIYDVSSRPSGVSNRFSGSKSDNTASLTISGLQAEDEADYYCSSYTSSSPYVFGTGTKVTVL
binds	B6 (antibody, V domains shown) VH: QVQLVQSGAEVKKPGATVKVSCTASGFPFRNYAMHWVRQAPGQRLEWLGWIDAGNGNTKYSQTFHGRVTITRDTSASTAYMELSSLRSEDTAVYYCARDLLWPYLVTSGGAFDIWGQGTMVTVSS VL: SYELMQPPSTSGTPGQRVTISCSGSSSNIGSHIVNWYQQFPGAAPQLLIYNDDQRPSGVPDRFSGSKSGASASLAISGLQSEDEAHYYCSAWDDILKGPVFGGGTKLTVL
binds	A4 (antibody, V domains shown) VH: QVQLVESGGGLIQPGGSLRLSCAASGFSVSNNYMNWVRQAPGKGLEWVSVIYRGGSTYYADSVKGRFTISRDNSKNTLYLQMNSLRTEDTAVYYCLREGGTSGDYVNDWGQGTLVTVSS VL: QSVVTQPPSVSGAPGQRVTISCTGSSSNIGAGYDVHWYQQLPGTAPKLLIYGNKNRPSGVPDRFSGSKSGTSASLAITGLQAEDEADYYCQAYDSSLSVVFGGGTKLTVL
binds	F1 (antibody, V domains shown) VH: EVQLVQSGAEVKKPGASVKVSCKASGYTFTSYGISWVRQAPGQGLEWMGWISAYNGNTNYAQKLQGRVTMTTDTSTSTAYMELRSLRSDDTAVYYCARVGYGGYFDYWGQGTLVTVSS VL: SYELMQPPSVSKGLRQTATLTCTGNSNNVGNQGADWLQQHQGHPPKLLSYRNNDRPSGISERFSASRSGSTASLTITGLQPEDEADYYCLAWDSSLSAWVFGGGTKVTVL
binds	F5 (antibody, V domains shown) VH: EVQLVQSGTEVKKPGSSVKVSCKASGGSFSNYAISWVRQAPGQGLEWMGRIIPILGIANYAQKFQGRVTITADKSTSTAYMELSSLGSEDTAVYYCARESGSYLDPWGQGTLVTVSS VL: DIVMTQSPDSLAVSLGERATINCKSSQSVLYSPNNKNYLTWYQQKPGQPPKLLMYWASTRESGVPDRFSASGSGTDFTLTISSLQAEDVAVYYCQQSRSGPYTFGQGTKVEIK
binds	G12 (antibody, V domains shown) VH: EVQLVESGAEVKKPGASVKVSCKASGYTFTSYGISWVRQAPGQGLEWMGWISAYNGNTNYAQKLQGRVTMTTDTSTSTAYMELRSLRSDDTAVYYCARGPGILTGYYFDYWGQGTLVTVSS VL: EIVMTQSPSSLSASVGDRVTITCRASQGINYHLAWYQQKPGKAPKLLIYAASALQSGVPSRFSGTGSGTEFTLTISSLQPEDFATYYCQQFNTYPLTFGGGTKLEIK
binds	C2 (antibody, V domains shown) VH: QVQLVQSGAEVKKPGASVKVSCKASGYTFTTHYIHWVRQAPGQGLEWMAIINPNDGVKVYAQKFKGRLTVASDTSATTVYMDLSGLTSDDTAVYYCGREQHGGHHDYWGQGTLVTVSS VL: QAGLTQPASVSGSPGQSITISCTGTSSDVGGYNYVSWYQQHPGKAPKLMIYDVTNRPSGVSNRFSGSKSGNTASLTISGLQAEDEADYYCKSYTSSSTPYVFGTGTKVTVL
binds	D5 (antibody, V domains shown) VH: QVQLQQSGPGLVKPSQTLSLTCAISGDSVSSNSAAWNWIRQSPSRGLEWLGRTYYRSKWYNDYAVSVKSRITINPDTSKNQFSLQLNSVTPEDTAVYYCAMHSGYRNYGMDVWGQGTTVTVSS VL: QSVVTQPPSVSGAPGQRVTISCTGSSSNIGAGYDVHWYQQLPGTAPKLLIYGNSNRPSGVPDRFSGSKSGTSASLAITGLQAEDEADYYCQSYDSSLSGAVVFGGGTKLTVL
binds	G1 (antibody, V domains shown) VH: QVQLVQSGAEVKKPGASVKVSCKTSGNTFTNYYMHWVRQAPGQGLEWMGIMNPSGGSTSYAQKFQGRVTMTRDKSTSTVYMELSSLTSEDTAVYYCARDLFPHIYGNYYGMDIWGQGTTVTVSS VL: QSVVTQPPSVSAAPGQNVTISCSGSSSNIGNNYVSWYQQLPGTAPKLLIYDNNRRASGIPDRFSGSKSGTSATLGITGLQTGDEADYYCGTWDRSLTTDWVFGGGTKLTVL
